This note sets out measurements from patent publication US20090042805A1 (CHIESI FARMACEUTICI S P A, published 2009).

T1: Human recombinant caspase-2 (human, UniProt P42575 170-452, limits assumed)
T1 sequence (looked up): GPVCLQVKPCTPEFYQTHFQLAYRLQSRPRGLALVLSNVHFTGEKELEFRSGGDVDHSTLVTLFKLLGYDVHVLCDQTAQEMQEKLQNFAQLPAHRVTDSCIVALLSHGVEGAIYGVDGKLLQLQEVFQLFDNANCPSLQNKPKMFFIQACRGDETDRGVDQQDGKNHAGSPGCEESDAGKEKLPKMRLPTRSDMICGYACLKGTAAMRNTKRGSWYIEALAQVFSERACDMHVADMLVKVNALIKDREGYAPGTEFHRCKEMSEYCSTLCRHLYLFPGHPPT

T2: Human recombinant caspase-6 (human, UniProt P55212 24-293, limits assumed)
T2 sequence (looked up): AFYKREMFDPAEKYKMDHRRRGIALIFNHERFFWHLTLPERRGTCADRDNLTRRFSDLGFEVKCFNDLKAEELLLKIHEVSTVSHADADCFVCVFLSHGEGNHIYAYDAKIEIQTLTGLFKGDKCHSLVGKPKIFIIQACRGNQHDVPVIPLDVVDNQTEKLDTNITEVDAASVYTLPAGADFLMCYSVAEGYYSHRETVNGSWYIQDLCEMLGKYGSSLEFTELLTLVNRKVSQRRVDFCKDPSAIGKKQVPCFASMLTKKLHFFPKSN

B1: Qco-VDVAD-CH2O(2,6-difluorophenyl) (peptide)
peptide: Quinaldoyl-VDVAD-{CH2O(2,6-difluorophenyl)}
B2: Ac-LDEAD-cho (peptide)
peptide: Ac-LDEAD-aldehyde
SMILES: CC(=O)N[C@@H](CC(C)C)C(=O)N[C@@H](CC(=O)O)C(=O)N[C@@H](CCC(=O)O)C(=O)N[C@@H](C)C(=O)N[C@H](C=O)CC(=O)O
B3: Ac-FDESD-cho (peptide)
peptide: Ac-FDESD-aldehyde
SMILES: CC(=O)N[C@@H](Cc1ccccc1)C(=O)N[C@@H](CC(=O)O)C(=O)N[C@@H](CCC(=O)O)C(=O)N[C@@H](CO)C(=O)N[C@H](C=O)CC(=O)O
B4: VDEGD pentapeptidic-based inhibitor (peptide)
peptide: Ac-VDEGD-aldehyde
B5: Ac-LDESD-cho (peptide)
peptide: Ac-LDESD-aldehyde
SMILES: CC(=O)N[C@@H](CC(C)C)C(=O)N[C@@H](CC(=O)O)C(=O)N[C@@H](CCC(=O)O)C(=O)N[C@@H](CO)C(=O)N[C@H](C=O)CC(=O)O
B6: Ac-VDEAD-cho (peptide)
peptide: Ac-VDEAD-aldehyde
SMILES: CC(=O)N[C@H](C(=O)N[C@@H](CC(=O)O)C(=O)N[C@@H](CCC(=O)O)C(=O)N[C@@H](C)C(=O)N[C@H](C=O)CC(=O)O)C(C)C
B7: Ac-LDEKD-cho (peptide)
peptide: Ac-LDEKD-aldehyde
SMILES: CC(=O)N[C@@H](CC(C)C)C(=O)N[C@@H](CC(=O)O)C(=O)N[C@@H](CCC(=O)O)C(=O)N[C@@H](CCCCN)C(=O)N[C@H](C=O)CC(=O)O
B8: Ac-LDEGD-cho (peptide)
peptide: Ac-LDEGD-aldehyde
SMILES: CC(=O)N[C@@H](CC(C)C)C(=O)N[C@@H](CC(=O)O)C(=O)N[C@@H](CCC(=O)O)C(=O)NCC(=O)N[C@H](C=O)CC(=O)O
B9: Ac-VDVAD-cho (peptide)
peptide: Ac-VDVAD-aldehyde
B10: Ac-VDESD-cho (peptide)
peptide: Ac-VDESD-aldehyde
SMILES: CC(=O)N[C@H](C(=O)N[C@@H](CC(=O)O)C(=O)N[C@@H](CCC(=O)O)C(=O)N[C@@H](CO)C(=O)N[C@H](C=O)CC(=O)O)C(C)C

* marks the point of attachment. Quinaldoyl = O=C(c1ccc2ccccc2n1)*

The target in the first test is T1, Human recombinant caspase-2. As to the kind of experiment: cell-based or functional assay.
On to B1, for which the “IC50, inhibition of caspase-2” value turned out to be 80 nM.

In the next test the target is T2, Human recombinant caspase-6. As to the kind of experiment: cell-based or functional assay.
B2: the “IC50, inhibition of Ac-VEID-AMC cleavage by human recombinant caspase-6” value is ~2 µM.

The target of the next test is T1, Human recombinant caspase-2. As to the kind of experiment: cell-based or functional assay. This is another data set of the same source.
B3: the “IC50 (nM), inhibition of Ac-VDVAD-AMC cleavage by human recombinant caspase-2” value (“IC50 (nM), inhibition” for short) is 800 nM. With B4, the “IC50 (nM), inhibition” value turned out to be 260 nM. With B5, the “IC50 (nM), inhibition” value came out at 300 nM. On to B6, for which the “IC50 (nM), inhibition” value came to 85 nM. Still for that read-out and setting: the result for B7 reads 300 nM; that for B2, 85 nM. Regarding B8, the “IC50 (nM), inhibition” value came to 430 nM. On to B9, for which the “IC50 (nM), inhibition” value turned out to be 75 nM. On to B10, for which the “IC50 (nM), inhibition” value was determined as 175 nM.
